The target of this assay is M6P receptor on the surface of human MPS IIIB skin fibroblasts (human). Briefly: cell-based or functional assay.

B1: recombinant human N-acetyl-alpha-D-glucosaminidase (rhNaGlu) produced in transgenic avian (Gallus) egg white (enzyme)
chain: DEAREAAAVRALVARLLGPGPAADFSVSVERALAAKPGLDTYSLGGGGAARVRVRGSTGVAAAAGLHRYLRDFCGCHVAWSGSQLRLPRPLPAVPGELTEATPNRYRYYQNVCTQSYSFVWWDWARWEREIDWMALNGINLALAWSGQEAIWQRVYLALGLTQAEINEFFTGPAFLAWGRMGNLHTWDGPLPPSWHIKQLYLQHRVLDQMRSFGMTPVLPAFAGHVPEAVTRVFPQVNVTKMGSWGHFNCSYSCSFLLAPEDPIFPIIGSLFLRELIKEFGTDHIYGADTFNEMQPPSSEPSYLAAATTAVYEAMTAVDTEAVWLLQGWLFQHQPQFWGPAQIRAVLGAVPRGRLLVLDLFAESQPVYTRTASFQGQPFIWCMLHNFGGNHGLFGALEAVNGGPEAARLFPNSTMVGTGMAPEGISQNEVVYSLMAELGWRKDPVPDLAAWVTSFAARRYGVSHPDAGAAWRLLLRSVYNCSGEACRGHNRSPLVRRPSLQMNTSIWYNRSDVFEAWRLLLTSAPSLATSPAFRYDLLDLTRQAVQELVSLYYEEARSAYLSKELASLLRAGGVLAYELLPALDEVLASDSRFLLGSWLEQARAAAVSEAEADFYEQNSRYQLTLWGPEGNILDYANKQLAGLVANYYTPRWRLFLEALVDSVAQGIPFQQHQFDKNVFQLEQAFVLSKQRYPSQPRGDTVDLAKKIFLKYYPRWVAGSW
modifications: N-linked glycans carrying mannose-6-phosphate (3.2 moles of M6P per mole of protein), mannose and GlcNAc; sites not stated
For B1, the “NaGlu enzymatic activity in human MPS IIIB fibroblasts after 24 h with 0.3 ug/mL rhNaGlu (cellular uptake)” value was ~50 % of wild-type fibroblast activity, the “NaGlu enzymatic activity in human MPS IIIB fibroblasts after 24 h with 1 ug/mL rhNaGlu (cellular uptake)” value is ~4 fold of wild-type fibroblast activity and the “NaGlu enzymatic activity in human MPS IIIB fibroblasts after 24 h with 30 ug/mL rhNaGlu (cellular uptake)” value is ≥ 40 fold of wild-type fibroblast activity.

The values above are taken from patent US20190083583A1 (Alexion, published 2019).
